From US20260317437 (published 2026)
Residue numbers refer to the chain shown, from its start. In names and notes the source's numbering stands. Where two headings read alike, the source gives them in different places. One block for each binder: values may come before it.

Key:
Assay in all cases: SPR
[1] = molecular target: T1, GCGR extracellular domain (human, UniProt P47871)
[2] = molecular target: T1, GCGR extracellular domain; remark: listed apart in the source
[3] = molecular target: T1, GCGR extracellular domain; remark: listed apart in the source
[4] = molecular target: T1, GCGR extracellular domain; remark: listed apart in the source

T1 sequence (P47871 26-477): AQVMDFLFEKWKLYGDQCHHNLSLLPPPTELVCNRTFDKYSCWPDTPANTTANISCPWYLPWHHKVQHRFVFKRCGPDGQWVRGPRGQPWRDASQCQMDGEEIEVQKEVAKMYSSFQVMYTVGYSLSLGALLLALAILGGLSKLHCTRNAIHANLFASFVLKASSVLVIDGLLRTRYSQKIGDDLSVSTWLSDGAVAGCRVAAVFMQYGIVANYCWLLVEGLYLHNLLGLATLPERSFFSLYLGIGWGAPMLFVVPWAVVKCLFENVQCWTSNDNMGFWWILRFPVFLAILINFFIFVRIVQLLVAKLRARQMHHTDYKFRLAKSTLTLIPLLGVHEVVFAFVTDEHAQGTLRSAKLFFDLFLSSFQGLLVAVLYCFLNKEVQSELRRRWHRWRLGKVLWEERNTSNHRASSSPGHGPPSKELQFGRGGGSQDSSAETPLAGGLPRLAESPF

B2: VH Y31H (antibody, V domains shown)
VH: EVQLVESGGGLVQPGGSLRLSCAASGFNIYHNYIHWVRQAPGKGLEWVAEFSPYSGSTYYADSVKGRFTISADTSKNTAYLQMNSLRAEDTAVYYCARSAAIVDWYDYFKGFDYWGQGTLVTVSS
VL: DIQMTQSPSSLSASVGDRVTITCRASQSVSSAVAWYQQKPGKAPKLLIYSASSLYSGVPSRFSGSRSGTDFTLTISSLQPEDFATYYCQQYGSYLYTFGQGTKVEIK
Kd [2]: 17.5 nM

B3: VH Y33A (antibody, V domains shown)
VH: B2 VH with H31Y, Y33A
VL: B2 VL
Kd [2]: 267 nM
Kd [3]: 53 nM

B5: VH S54R (antibody, V domains shown)
VH: B2 VH with H31Y, S55R
VL: B2 VL
Kd [2]: 16 nM

B10: VH Y100bH (antibody, V domains shown)
VH: B2 VH with H31Y, Y106H
VL: B2 VL
Kd [2]: 2.9 nM
Kd [4]: 2.9 nM

B12: VH Y30N (antibody, V domains shown)
VH: B2 VH with Y30N, H31Y
VL: B2 VL
Kd [2]: 103 nM

B14: VH W100aL (antibody, V domains shown)
VH: B2 VH with H31Y, W105L
VL: B2 VL
Kd [2]: 5.24 nM
Kd [4]: 5.24 nM

B17: VH Y30H (antibody, V domains shown)
VH: B2 VH with Y30H, H31Y
VL: B2 VL
Kd [2]: 5.14 nM
Kd [4]: 5.14 nM

B18: VH W100aV (antibody, V domains shown)
VH: B2 VH with H31Y, W105V
VL: B2 VL
Kd [2]: 5.88 nM
Kd [4]: 5.88 nM

B19: VL Y55A (antibody, V domains shown)
VH: B2 VH with H31Y
VL: B2 VL with Y55A
Kd [3]: 0.74 nM

B20: VH W100aH (antibody, V domains shown)
VH: B2 VH with H31Y, W105H
VL: B2 VL
Kd [2]: 41.7 nM

B21: VH Y100bK (antibody, V domains shown)
VH: B2 VH with H31Y, Y106K
VL: B2 VL
Kd [2]: 7.75 nM
Kd [4]: 7.75 nM

B22: VH Y59A (antibody, V domains shown)
VH: B2 VH with H31Y, Y59A
VL: B2 VL
Kd [3]: 0.32 nM

B23: VH Y54A (antibody, V domains shown)
VH: B2 VH with H31Y, Y54A
VL: B2 VL
Kd [3]: 46 nM

B25: VH W100aA (antibody, V domains shown)
VH: B2 VH with H31Y, W105A
VL: B2 VL
Kd [2]: 16.3 nM
Kd [3]: 11 nM

B27: VH Y100bQ (antibody, V domains shown)
VH: B2 VH with H31Y, Y106Q
VL: B2 VL
Kd [2]: 6.08 nM
Kd [4]: 6.08 nM

B28: VH Y100bR (antibody, V domains shown)
VH: B2 VH with H31Y, Y106R
VL: B2 VL
Kd [2]: 7.08 nM
Kd [4]: 7.08 nM

B31: VH Y31A (antibody, V domains shown)
VH: B2 VH with H31A
VL: B2 VL
Kd [3]: 206 nM
binding result [1]: no binding

B32: VH F51A (antibody, V domains shown)
VH: B2 VH with H31Y, F51A
VL: B2 VL
Kd [3]: 1.5 nM

B33: VH W100aF (antibody, V domains shown)
VH: B2 VH with H31Y, W105F
VL: B2 VL
Kd [2]: 5.2 nM
Kd [4]: 5.2 nM

B34: VH Y30E (antibody, V domains shown)
VH: B2 VH with Y30E, H31Y
VL: B2 VL
Kd [2]: 45.1 nM

More lines, now with the values ahead:

binding result [1]: no binding
B1: VH Y31W (antibody, V domains shown)
VH: B2 VH with H31W
VL: B2 VL

binding result [1]: no binding
B4: VH Y31D (antibody, V domains shown)
VH: B2 VH with H31D
VL: B2 VL

Kd [2]: 7.08 nM
B6: VL Y91D (antibody, V domains shown)
VH: B2 VH with H31Y
VL: B2 VL with Y91D

binding result [1]: no binding
B7: VH Y31R (antibody, V domains shown)
VH: B2 VH with H31R
VL: B2 VL

binding result [1]: no binding
B8: VH W100aR (antibody, V domains shown)
VH: B2 VH with H31Y, W105R
VL: B2 VL

Kd [2]: 1.6 nM
Kd [4]: 1.6 nM
B9: VL Y94K (antibody, V domains shown)
VH: B2 VH with H31Y
VL: B2 VL with Y94K

binding result [1]: no binding
B11: VH W100aK (antibody, V domains shown)
VH: B2 VH with H31Y, W105K
VL: B2 VL

Kd [2]: 2.71 nM
B13: VL Y94T (antibody, V domains shown)
VH: B2 VH with H31Y
VL: B2 VL with Y94T

Kd [3]: 0.93 nM
B15: VL Y96A (antibody, V domains shown)
VH: B2 VH with H31Y
VL: B2 VL with Y96A

Kd [2]: 2.53 nM
Kd [3]: 0.61 nM
Kd [4]: 2.53 nM
B16: anti-GCGR IgG1 parent (antibody, V domains shown)
VH: B2 VH with H31Y
VL: B2 VL

binding result [1]: no binding
B24: VH Y31E (antibody, V domains shown)
VH: B2 VH with H31E
VL: B2 VL

binding result [1]: no binding
B26: VH Y31I (antibody, V domains shown)
VH: B2 VH with H31I
VL: B2 VL

binding result [1]: no binding
B29: VH Y31S (antibody, V domains shown)
VH: B2 VH with H31S
VL: B2 VL

binding result [1]: no binding
B30: VH Y31K (antibody, V domains shown)
VH: B2 VH with H31K
VL: B2 VL

Kd [2]: 1.84 nM
B35: VL Y94N (antibody, V domains shown)
VH: B2 VH with H31Y
VL: B2 VL with Y94N

Kd [2]: 2.64 nM
B36: VL Y94A (antibody, V domains shown)
VH: B2 VH with H31Y
VL: B2 VL with Y94A

binding result [1]: no binding
B37: VH Y31N (antibody, V domains shown)
VH: B2 VH with H31N
VL: B2 VL

Kd [2]: 98.5 nM
Kd [3]: 0.84 nM
B38: VL Y91A (antibody, V domains shown)
VH: B2 VH with H31Y
VL: B2 VL with Y91A
